Where “and” joins values, the source holds several entries; their conditions need not be identical. Equal values may be shown once.
Tests used:
Human CD64 (FcγRI) = molecular target: T1, Human CD64 (FcγRI) (human, UniProt P12314 16-288, biotinylated); test: SPR 25C, average
T1 construct: Bought recombinant receptor; also called hFcγRI; Human FcγRI

Cynomolgus CD64 (FcγRI) = molecular target: T2, Cynomolgus CD64 (FcγRI) (cynomolgus monkey, UniProt A0A2K5U901 33-309, Biotinylated and captured on the CAP chip (p-1094); the biotin site is not stated.); test: SPR 25C, average
T2 construct: Bought recombinant receptor; also called cFcγRI; Cynomolgus FcγRI; not shown: The vendor's biotinylation and purification tag (ACRO FCA-C82E8)
T2 sequence (A0A2K5U901 entry or part of it limits assumed): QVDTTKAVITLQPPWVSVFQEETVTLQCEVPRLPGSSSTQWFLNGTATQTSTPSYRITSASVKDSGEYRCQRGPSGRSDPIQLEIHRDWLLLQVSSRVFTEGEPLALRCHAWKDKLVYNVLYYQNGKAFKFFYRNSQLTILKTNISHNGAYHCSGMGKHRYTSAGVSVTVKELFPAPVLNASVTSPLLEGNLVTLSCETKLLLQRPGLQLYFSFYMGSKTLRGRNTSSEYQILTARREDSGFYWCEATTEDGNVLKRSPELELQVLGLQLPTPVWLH

[1] = molecular target: T3, Human CLEC12A expressed on cells (Ba/F3-hCLEC12A, PL21, HL60) (human, UniProt Q5QGZ9 1-265); test: cell-based or functional assay
T3 sequence: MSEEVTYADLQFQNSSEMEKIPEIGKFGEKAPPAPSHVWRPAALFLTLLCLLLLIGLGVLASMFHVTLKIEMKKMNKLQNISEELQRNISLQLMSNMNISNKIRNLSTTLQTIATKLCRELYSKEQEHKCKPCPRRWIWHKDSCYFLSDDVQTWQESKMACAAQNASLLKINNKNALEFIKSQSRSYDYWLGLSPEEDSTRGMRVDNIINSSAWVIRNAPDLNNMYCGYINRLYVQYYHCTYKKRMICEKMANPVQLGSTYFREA

[2] = molecular target: T4, Human CD16a F158 (FcγRIIIa F158) (human, UniProt P08637 17-208, biotinylated); test: SPR 25C, receptor captured, steady-state fit
T4 construct: Bought recombinant receptor; also called hFcγRIIIa F158
T4 sequence (P08637 17-208 limits assumed): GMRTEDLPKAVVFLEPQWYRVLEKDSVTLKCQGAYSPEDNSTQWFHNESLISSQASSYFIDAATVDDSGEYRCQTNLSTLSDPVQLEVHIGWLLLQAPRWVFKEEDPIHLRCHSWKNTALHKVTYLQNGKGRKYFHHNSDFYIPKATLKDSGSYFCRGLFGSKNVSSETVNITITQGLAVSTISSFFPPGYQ

[3] = molecular target: T5, Human CD32a R131 (FcγRIIa R131) (human, UniProt P12318 36-218, limits assumed, biotinylated); test: SPR 25C, biotinylated receptor captured on SA chip
T5 construct: Bought recombinant receptor; also called hFcγRIIa R131; FcgRIIa R131
T5 sequence (looked up): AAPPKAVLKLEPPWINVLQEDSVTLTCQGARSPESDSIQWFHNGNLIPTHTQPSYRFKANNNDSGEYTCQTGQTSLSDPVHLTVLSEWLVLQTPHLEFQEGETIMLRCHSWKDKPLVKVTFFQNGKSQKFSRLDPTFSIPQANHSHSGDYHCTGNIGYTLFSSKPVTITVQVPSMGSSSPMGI

[4] = molecular target: T6, human CLEC12A expressed on cells (human, UniProt Q5QGZ9 1-265); test: flow cytometry (gMFI) on CLEC12A+ PL-21 AML cells
T6 construct: Transduced isogenic cells or endogenous expression on AML cells; also called RMA-hCLEC12A; Ba/F3-hCLEC12A
T6 sequence: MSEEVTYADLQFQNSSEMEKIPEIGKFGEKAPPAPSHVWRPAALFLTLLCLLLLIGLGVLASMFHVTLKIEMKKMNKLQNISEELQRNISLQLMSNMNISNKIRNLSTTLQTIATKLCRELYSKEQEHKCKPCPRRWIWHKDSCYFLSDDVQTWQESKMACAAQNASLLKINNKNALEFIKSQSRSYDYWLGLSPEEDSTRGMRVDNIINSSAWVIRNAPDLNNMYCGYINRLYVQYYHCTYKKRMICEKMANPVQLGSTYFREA

[5] = molecular target: T7, human CLEC12A on cells (HL60, PL21, Ba/F3-hCLEC12A) (human, UniProt Q5QGZ9 1-265); test: flow cytometry, 40 nM, MFI after 2 h 37 C relative to 2 h on ice, HL60 cells
T7 construct: Endogenous on the AML lines HL60 and PL21; brought into mouse Ba/F3 cells by retroviral transduction; The cell line stands under assay; also called CLL-1
T7 sequence: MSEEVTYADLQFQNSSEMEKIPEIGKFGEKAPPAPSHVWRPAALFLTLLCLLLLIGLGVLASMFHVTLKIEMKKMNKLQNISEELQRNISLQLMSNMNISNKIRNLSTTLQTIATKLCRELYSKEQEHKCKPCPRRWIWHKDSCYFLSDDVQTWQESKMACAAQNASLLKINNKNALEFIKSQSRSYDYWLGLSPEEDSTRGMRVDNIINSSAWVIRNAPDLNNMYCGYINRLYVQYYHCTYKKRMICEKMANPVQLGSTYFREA

T1 sequence (P12314 16-288 limits assumed): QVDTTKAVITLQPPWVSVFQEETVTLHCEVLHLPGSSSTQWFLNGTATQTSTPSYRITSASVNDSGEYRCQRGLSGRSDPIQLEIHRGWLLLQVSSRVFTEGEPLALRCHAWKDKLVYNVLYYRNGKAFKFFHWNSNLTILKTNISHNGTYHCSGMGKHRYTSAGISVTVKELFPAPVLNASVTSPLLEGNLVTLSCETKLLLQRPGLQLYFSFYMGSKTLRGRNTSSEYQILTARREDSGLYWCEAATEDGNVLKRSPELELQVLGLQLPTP

B1: AB0089 TriNKET (bispecific antibody, human IgG1, kappa)
chain: QLQLQESGPGLVKPSETLSLTCTVSGFSLTNYGLHWIRQPPGKCLEWIGVIWVGGATDYNPSLKSRVTISVDTSKNQFSLKLSSVQAADTAVYYCAKGDYGDTLDYWGQGTLVTVSSGGGGSGGGGSGGGGSGGGGSDIQMTQSPSSLSASVGDRVTITCHASQNINFWLSWYQQKPGKAPKLLIYEASNLHTGVPSRFSGSGSGTDFTLTISSLQPEDFATYYCQQSHSYPLTFGCGTKLEIKGSDKTHTCPPCPAPELLGGPSVFLFPPKPKDTLMISRTPEVTCVVVDVSHEDPEVKFNWYVDGVEVHNAKTKPREEQYNSTYRVVSVLTVLHQDWLNGKEYKCKVSNKALPAPIEKTISKAKGQPREPRVYTLPPCRDELTKNQVSLTCLVKGFYPSDIAVEWESNGQPENNYKTTPPVLVSDGSFTLYSKLTVDKSRWQQGNVFSCSVMHEALHNHYTQKSLSLSPG
heavy: EVQLVESGGGLVKPGGSLRLSCAASGFTFSSYSMNWVRQAPGKGLEWVSSISSSSSYIYYADSVKGRFTISRDNAKNSLYLQMNSLRAEDTAVYYCARGAPIGAAAGWFDPWGQGTLVTVSSASTKGPSVFPLAPSSKSTSGGTAALGCLVKDYFPEPVTVSWNSGALTSGVHTFPAVLQSSGLYSLSSVVTVPSSSLGTQTYICNVNHKPSNTKVDKKVEPKSCDKTHTCPPCPAPELLGGPSVFLFPPKPKDTLMISRTPEVTCVVVDVSHEDPEVKFNWYVDGVEVHNAKTKPREEQYNSTYRVVSVLTVLHQDWLNGKEYKCKVSNKALPAPIEKTISKAKGQPREPQVCTLPPSRDELTENQVSLTCLVKGFYPSDIAVEWESNGQPENNYKTTPPVLDSDGSFFLYSWLTVDKSRWQQGNVFSCSVMHEALHNHYTQKSLSLSPG
light: DIQMTQSPSSVSASVGDRVTITCRASQGISSWLAWYQQKPGKAPKLLIYAASSLQSGVPSRFSGSGSGTDFTLTISSLQPEDFATYYCQQGVSFPRTFGGGTKVEIKRTVAAPSVFIFPPSDEQLKSGTASVVCLLNNFYPREAKVQWKVDNALQSGNSQESVTEQDSKDSTYSLSSTLTLSKADYEKHKVYACEVTHQGLSSPVTKSFNRGEC
notes: F3' format heterodimer of three chains; human IgG1 Fc with EW-RVT and Y349C/S354C mutations; also called AB0089 Lot AB0089-002; CLEC12A TriNKET AB0089
Human CD64 (FcγRI)
  Kd: 5.1 nM
  koff: 0.00023 s⁻¹
  kon: 46000 M⁻¹ s⁻¹
Cynomolgus CD64 (FcγRI)
  Kd: 1.5 nM
  koff: 8.1e-05 s⁻¹
  kon: 55000 M⁻¹ s⁻¹
[1]
  EC50, cytotoxicity potency; after pH 8, 40C, 2 wks: 0.23 nM
  EC50, cytotoxicity potency; control sample: 0.11 nM
[2]
  Kd: 1250 nM and 1280 nM and 1300 nM
[3]
  Kd: 1340 nM and 1020 nM and 1600 nM and 1060 nM

B2: F3'-1602 TriNKET (other)
chain: QLQLQESGPGLVKPSETLSLTCTVSGFSLTNYGLHWIRQPPGKCLEWIGVIWSGGKTDYNPSLKSRVTISKDTSKNQFSLKLSSVQAADTAVYYCAKYDYDDSLDYWGQGTLVTVSSGGGGSGGGGSGGGGSGGGGSDIQMTQSPSSLSASVGDRVTITCHASQNINFWLSWYQQKPGKAPKLLIYEASNLHTGVPSRFSGSGSGTRFTLTISSLQPEDIATYYCQQSHSYPLTFGCGTKLEIKGSDKTHTCPPCPAPELLGGPSVFLFPPKPKDTLMISRTPEVTCVVVDVSHEDPEVKFNWYVDGVEVHNAKTKPREEQYNSTYRVVSVLTVLHQDWLNGKEYKCKVSNKALPAPIEKTISKAKGQPREPRVYTLPPCRDELTKNQVSLTCLVKGFYPSDIAVEWESNGQPENNYKTTPPVLVSDGSFTLYSKLTVDKSRWQQGNVFSCSVMHEALHNHYTQKSLSLSPG
heavy: EVQLVESGGGLVKPGGSLRLSCAASGFTFSSYSMNWVRQAPGKGLEWVSSISSSSSYIYYADSVKGRFTISRDNAKNSLYLQMNSLRAEDTAVYYCARGAPIGAAAGWFDPWGQGTLVTVSSASTKGPSVFPLAPSSKSTSGGTAALGCLVKDYFPEPVTVSWNSGALTSGVHTFPAVLQSSGLYSLSSVVTVPSSSLGTQTYICNVNHKPSNTKVDKKVEPKSCDKTHTCPPCPAPELLGGPSVFLFPPKPKDTLMISRTPEVTCVVVDVSHEDPEVKFNWYVDGVEVHNAKTKPREEQYNSTYRVVSVLTVLHQDWLNGKEYKCKVSNKALPAPIEKTISKAKGQPREPQVCTLPPSRDELTENQVSLTCLVKGFYPSDIAVEWESNGQPENNYKTTPPVLDSDGSFFLYSWLTVDKSRWQQGNVFSCSVMHEALHNHYTQKSLSLSPG
light: DIQMTQSPSSVSASVGDRVTITCRASQGISSWLAWYQQKPGKAPKLLIYAASSLQSGVPSRFSGSGSGTDFTLTISSLQPEDFATYYCQQGVSFPRTFGGGTKVEIKRTVAAPSVFIFPPSDEQLKSGTASVVCLLNNFYPREAKVQWKVDNALQSGNSQESVTEQDSKDSTYSLSSTLTLSKADYEKHKVYACEVTHQGLSSPVTKSFNRGEC
notes: CLEC12A scFv-Fc, NKG2D A49MI Fab-Fc, human IgG1 Fc; also called AB0237
[4]
  EC50: 1.2 nM

B3: AB0192 TriNKET (other)
chain: EVQLVESGGGVVQPGGSLRLSCAASGFTFNAFGMHWVRQAPGKCLEWVAFISSGSTSIYYANTVKGRFTISRDNSKNTLYLQMNSLRAEDTAVYYCARDGYPTGGAMDYWGQGTSVTVSSGGGGSGGGGSGGGGSGGGGSDIQMTQSPSSLSASVGDRVTITCKASQDIYNYLSWFQQKPGKAPKPLIYRANILVSGVPSRFSGSGSGQDYTFTISSLQPEDIATYYCLQFDAFPFTFGCGTKLEIKGSDKTHTCPPCPAPELLGGPSVFLFPPKPKDTLMISRTPEVTCVVVDVSHEDPEVKFNWYVDGVEVHNAKTKPREEQYNSTYRVVSVLTVLHQDWLNGKEYKCKVSNKALPAPIEKTISKAKGQPREPRVYTLPPCRDELTKNQVSLTCLVKGFYPSDIAVEWESNGQPENNYKTTPPVLVSDGSFTLYSKLTVDKSRWQQGNVFSCSVMHEALHNHYTQKSLSLSPG
heavy: EVQLVESGGGLVKPGGSLRLSCAASGFTFSSYSMNWVRQAPGKGLEWVSSISSSSSYIYYADSVKGRFTISRDNAKNSLYLQMNSLRAEDTAVYYCARGAPIGAAAGWFDPWGQGTLVTVSSASTKGPSVFPLAPSSKSTSGGTAALGCLVKDYFPEPVTVSWNSGALTSGVHTFPAVLQSSGLYSLSSVVTVPSSSLGTQTYICNVNHKPSNTKVDKKVEPKSCDKTHTCPPCPAPELLGGPSVFLFPPKPKDTLMISRTPEVTCVVVDVSHEDPEVKFNWYVDGVEVHNAKTKPREEQYNSTYRVVSVLTVLHQDWLNGKEYKCKVSNKALPAPIEKTISKAKGQPREPQVCTLPPSRDELTENQVSLTCLVKGFYPSDIAVEWESNGQPENNYKTTPPVLDSDGSFFLYSWLTVDKSRWQQGNVFSCSVMHEALHNHYTQKSLSLSPG
light: DIQMTQSPSSVSASVGDRVTITCRASQGISSWLAWYQQKPGKAPKLLIYAASSLQSGVPSRFSGSGSGTDFTLTISSLQPEDFATYYCQQGVSFPRTFGGGTKVEIKRTVAAPSVFIFPPSDEQLKSGTASVVCLLNNFYPREAKVQWKVDNALQSGNSQESVTEQDSKDSTYSLSSTLTLSKADYEKHKVYACEVTHQGLSSPVTKSFNRGEC
notes: the condition stands under assay; also called AB0192 Lot AB0192-005
[5]
  percent surface retention: 103%

From patent US20220119534A1 (DRAGONFLY THERAPEUTICS, published 2022)
